Our source for the Kd, koff and kon values is PMC9006895.

Experiment [1] concerns the target flotillin 2-MBP (Laodelphax striatellus). In words: MST; Monolith NT.115; flotillin 2-MBP labeled with NHS-495 held at 10 μM, NP-GST diluted from 17.5 μM to 0.0417 nM; 25°C.
The target is the same in experiment [2]. The experiment is described as follows: BLI; Octet RED96e; biotinylated flotillin 2-MBP (5 μM) loaded on streptavidin biosensors; NP-GST 0 to 4,000 nM in 1× PBS; 25°C; buffer 20 mM NaH2PO4, 150 mM NaCl, 0.05% Tween 20. Background: BLI is a label-free optical method that tracks binding on a fibre tip over time.

The term Kd denotes a measure of binding affinity in units of concentration. As a reminder, the koff is the rate constant with which the complex falls apart. Read a low koff as slow dissociation. As a reminder, the kon is the second-order rate constant of association. The low end stands for slow association, the high end for fast association. Regarding NP-GST (natural protein), the Kd in experiment [1] came to 791 nM. In experiment [2], this substance displayed a Kd of 619 nM, a koff of 0.00382 s⁻¹ and a kon of 6170 M⁻¹ s⁻¹.
